Experimental data from US20100196390A1 (RINAT NEUROSCIENCE, published 2010).

Target: TrkB (Homo sapiens (Human), UniProt Q16620 32-430)
Test: koff of Fab at 25 C; T1/2=Log2/koff
Summary of the method: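 Monovalent Fab fragments were tested at 25° C by surface plasmon resonance on a Biacore instrument, against TrkB extracellular-domain monomer amine-coupled to the chip at low capacity. Fabs were injected low to high as a 3-fold serial dilution from 100 nM for 84 sec, with a 10 minute dissociation after the top sample. The dissociation half-life was calculated from koff, which was fitted to a Langmuir binding model in BIAevaluation. The formula used was T1/2 = Log 2/koff.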

Chain of TrkB (Q16620 32-430 limits assumed): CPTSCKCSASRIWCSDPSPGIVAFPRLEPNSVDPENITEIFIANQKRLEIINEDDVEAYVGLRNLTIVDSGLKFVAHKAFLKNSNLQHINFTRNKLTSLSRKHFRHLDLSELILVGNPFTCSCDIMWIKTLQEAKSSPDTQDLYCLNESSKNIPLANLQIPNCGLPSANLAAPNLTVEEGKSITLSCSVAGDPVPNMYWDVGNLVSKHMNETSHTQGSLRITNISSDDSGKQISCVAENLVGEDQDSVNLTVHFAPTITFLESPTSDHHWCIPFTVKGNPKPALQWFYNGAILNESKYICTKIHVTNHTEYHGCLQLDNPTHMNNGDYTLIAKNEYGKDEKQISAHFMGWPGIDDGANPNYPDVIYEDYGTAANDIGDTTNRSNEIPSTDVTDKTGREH

| Binder | T1/2 [min] |
| --- | --- |
| 12-C8 (Fab, V domains shown, Fab) VH: QVQLVQSGAEVKKPGASVKVSCKASGYTFTNYDIIWVRQAPGQGLEWMGYINPYNGRREYNEKFKGRVTMTRDTSTSTVYMELSSLRSEDTAVYYCARLLKYRRFRYYAIDYWGQGTTVTVSS VL: DIQMTQSPSSLSASVGDRVTITCRASKNVYSNLAWYQQKPGKAPKLLIYAASNLQSGVPSRFSGSGSGTDFTFTISSLQPEDIATYYCQHFWGSPFTFGQGTKLEIK | 8 |
| 12-E11 (Fab, V domains shown, Fab) VH: QVQLVQSGAEVKKPGASVKVSCKASGYTFTNYDIIWVRQAPGQGLEWMGYINPYNGRREYNEKFKGRVTMTRDTSTSTVYMELSSLRSEDTAVYYCARLLKYRRFRYYAIDYWGQGTTVTVSS VL: DIQMTQSPSSLSASVGDRVTITCRASEPVYNNLAWYQQKPGKAPKLLIYAASNLQSGVPSRFSGSGSGTDYTFTISSLQPEDIATYYCQHFWYSPFTFGQGTKLEIK | 11 |
| 13-F12 (Fab, V domains shown, Fab) VH: QVQLVQSGAEVKKPGASVKVSCKASGYTFTNYDIIWVRQAPGQGLEWMGYINPYNGRREYNEKFKGRVTMTRDTSTSTVYMELSSLRSEDTAVYYCARLLKYRRFRYYAIDYWGQGTTVTVSS VL: DIQMTQSPSSLSASVGDRVTITCRASENVYRNLAWYQQKPGKAPKLLIYAASNLQSGVPSRFSGSGSGTDYTFTISSLQPEDIATYYCQHFWGSPFTFGQGTKLEIK | 13 |
| 13-B2 (Fab, V domains shown, Fab) VH: QVQLVQSGAEVKKPGASVKVSCKASGYTFTNYDIIWVRQAPGQGLEWMGYINPYNGRREYNEKFKGRVTMTRDTSTSTVYMELSSLRSEDTAVYYCARLLKYRRFRYYAIDYWGQGTTVTVSS VL: DIQMTQSPSSLSASVGDRVTITCRASKPVYSNLAWYQQKPGKAPKLLIYAASNLQSGVPSRFSGSGSGTDYTFTISSLQPEDIATYYCQHFWGSPFTFGQGTKLEIK | 13 |
| 12-E5 (Fab, V domains shown, Fab) VH: QVQLVQSGAEVKKPGASVKVSCKASGYTFTNYDIIWVRQAPGQGLEWMGYINPYNGRREYNEKFKGRVTMTRDTSTSTVYMELSSLRSEDTAVYYCARLLKYRRFRYYAIDYWGQGTTVTVSS VL: DIQMTQSPSSLSASVGDRVTITCRASEPVYSNLAWYQQKPGKAPKLLIYAASNLQSGVPSRFSGSGSGTDFTFTISSLQPEDIATYYCQHFWGSPFTFGQGTKLEIK | 7.5 |
| 13-C11 (Fab, V domains shown, Fab) VH: QVQLVQSGAEVKKPGASVKVSCKASGYTFTNYDIIWVRQAPGQGLEWMGYINPYNGRREYNEKFKGRVTMTRDTSTSTVYMELSSLRSEDTAVYYCARLLKYRRFRYYAIDYWGQGTTVTVSS VL: DIQMTQSPSSLSASVGDRVTITCRASENVYSHLAWYQQKPGKAPKLLIYAASNLQSGVPSRFSGSGSGTDYTFTISSLQPEDIATYYCQHFWGSPFTFGQGTKLEIK | 13 |
| 12-C9 (Fab, V domains shown, Fab) VH: QVQLVQSGAEVKKPGASVKVSCKASGYTFTNYDIIWVRQAPGQGLEWMGYINPYNGRTEYNEKFKGRVTMTRDTSTSTVYMELSSLRSEDTAVYYCARLLKYRRFRYYAIDYWGQGTTVTVSS VL: DIQMTQSPSSLSASVGDRVTITCRASKNVYSNLAWYQQKPGKAPKLLIYAASNLQSGVPSRFSGSGSGTDFTFTISSLQPEDIATYYCQQFWYSPFTFGQGTKLEIK | 0.8 |
| 13-A12 (Fab, V domains shown, Fab) VH: QVQLVQSGAEVKKPGASVKVSCKASGYTFTNYDIIWVRQAPGQGLEWMGYINPYNDGRKENEKFKGRVTMTRDTSTSTVYMELSSLRSEDTAVYYCARLLKYRRFRYYAIDYWGQGTTVTVSS VL: DIQMTQSPSSLSASVGDRVTITCRASENVYRNLAWYQQKPGKAPKLLIYAASNLQSGVPSRFSGSGSGTDYTFTISSLQPEDIATYYCQHFWYSPFTFGQGTKLEIK | 13 |
| 13-B4 (Fab, V domains shown, Fab) VH: QVQLVQSGAEVKKPGASVKVSCKASGYTFTNYDIIWVRQAPGQGLEWMGYINPYNDGRKENEKFKGRVTMTRDTSTSTVYMELSSLRSEDTAVYYCARLLKYRRFRYYAIDYWGQGTTVTVSS VL: DIQMTQSPSSLSASVGDRVTITCRASENVYMNLAWYQQKPGKAPKLLIYAASNLQSGVPSRFSGSGSGTDYTFTISSLQPEDIATYYCQHFWYSPFTFGQGTKLEIK | 13 |
| 13-H3 (Fab, V domains shown, Fab) VH: QVQLVQSGAEVKKPGASVKVSCKASGYTFTNYDIIWVRQAPGQGLEWMGYINPYNDGRKENEKFKGRVTMTRDTSTSTVYMELSSLRSEDTAVYYCARLLKYRRFRYYAIDYWGQGTTVTVSS VL: DIQMTQSPSSLSASVGDRVTITCRASENVYSNLAWYQQKPGKAPKLLIYAASNLQSGVPSRFSGSGSGTDYTFTISSLQPEDIATYYCQHFWGSPFTFGQGTKLEIK | 13 |
| 13-C7 (Fab, V domains shown, Fab) VH: QVQLVQSGAEVKKPGASVKVSCKASGYTFTNYDIIWVRQAPGQGLEWMGYINPYNGRREYNEKFKGRVTMTRDTSTSTVYMELSSLRSEDTAVYYCARLLKYRRFRYYAIDYWGQGTTVTVSS VL: DIQMTQSPSSLSASVGDRVTITCRASEPVYSNLAWYQQKPGKAPKLLIYAASNLQSGVPSRFSGSGSGTDYTFTISSLQPEDIATYYCQHFWYSPFTFGQGTKLEIK | 13 |
| 13-D5 (Fab, V domains shown, Fab) VH: QVQLVQSGAEVKKPGASVKVSCKASGYTFTNYDIIWVRQAPGQGLEWMGYINPYNGRREYNEKFKGRVTMTRDTSTSTVYMELSSLRSEDTAVYYCARLLKYRRFRYYAIDYWGQGTTVTVSS VL: DIQMTQSPSSLSASVGDRVTITCRASENVTSNLAWYQQKPGKAPKLLIYAASNLQSGVPSRFSGSGSGTDYTFTISSLQPEDIATYYCQHFWGSPFTFGQGTKLEIK | 13 |
| 13-C12 (Fab, V domains shown, Fab) VH: QVQLVQSGAEVKKPGASVKVSCKASGYTFTNYDIIWVRQAPGQGLEWMGYINPYNGRREYNEKFKGRVTMTRDTSTSTVYMELSSLRSEDTAVYYCARLLKYRRFRYYAIDYWGQGTTVTVSS VL: DIQMTQSPSSLSASVGDRVTITCRASENVYRNLAWYQQKPGKAPKLLIYAASNLQSGVPSRFSGSGSGTDYTFTISSLQPEDIATYYCQHFVYSPFTFGQGTKLEIK | 13 |
| 12-H6 (Fab, V domains shown, Fab) VH: QVQLVQSGAEVKKPGASVKVSCKASGYTFTNYDIIWVRQAPGQGLEWMGYINPYNRRREYNEKFKGRVTMTRDTSTSTVYMELSSLRSEDTAVYYCARLLKYRRFRYYAIDYWGQGTTVTVSS VL: DIQMTQSPSSLSASVGDRVTITCRASENVYRNLAWYQQKPGKAPKLLIYAASNLQSGVPSRFSGSGSGTDYTFTISSLQPEDIATYYCQHFWGSPFTFGQGTKLEIK | 12 |
| 14-A6 (Fab, V domains shown, Fab) VH: QVQLVQSGAEVKKPGASVKVSCKASGYTFTNYDIIWVRQAPGQGLEWMGYINPYNRRREYNEKFKGRVTMTRDTSTSTVYMELSSLRSEDTAVYYCARLLKYRRFRYYAIDYWGQGTTVTVSS VL: DIQMTQSPSSLSASVGDRVTITCHASENVYSNLAWYQQKPGKAPKLLIYAASNLQSGVPSRFSGSGSGTDFTFTISSLQPEDIATYYCQHFWGSPFTFGQGTKLEIK | 2.8 |
| 13-C6 (Fab, V domains shown, Fab) VH: QVQLVQSGAEVKKPGASVKVSCKASGYTFTNYDIIWVRQAPGQGLEWMGYINPYNGRREYNEKFKGRVTMTRDTSTSTVYMELSSLRSEDTAVYYCARLLKYRRFRYYAIDYWGQGTTVTVSS VL: DIQMTQSPSSLSASVGDRVTITCRASEPVYSNVAWYQQKPGKAPKLLIYAASNLQSGVPSRFSGSGSGTDFTFTISSLQPEDIATYYCQHFWGSPFTFGQGTKLEIK | 4.8 |
| 12-D8 (Fab, V domains shown, Fab) VH: QVQLVQSGAEVKKPGASVKVSCKASGYTFTNYDIIWVRQAPGQGLEWMGYINPYNGRREYNEKFKGRVTMTRDTSTSTVYMELSSLRSEDTAVYYCARLLKYRRFRYYAIDYWGQGTTVTVSS VL: DIQMTQSPSSLSASVGDRVTITCRASENVYSNTAWYQQKPGKAPKLLIYAASNLQSGVPSRFSGSGSGTDYTFTISSLQPEDIATYYCQHFWGSPFTFGQGTKLEIK | 10 |
| 13-C5 (Fab, V domains shown, Fab) VH: QVQLVQSGAEVKKPGASVKVSCKASGYTFTNYDIIWVRQAPGQGLEWMGYINPYNGRREYNEKFKGRVTMTRDTSTSTVYMELSSLRSEDTAVYYCARLLKYRRFRYYAIDYWGQGTTVTVSS VL: DIQMTQSPSSLSASVGDRVTITCRASEPVYSNLAWYQQKPGKAPKLLIYAASNLQSGVPSRFSGSGSGTDYTFTISSLQPEDIATYYCQHFWGSPFTFGQGTKLEIK | 13 |
| 13-H6 (Fab, V domains shown, Fab) VH: QVQLVQSGAEVKKPGASVKVSCKASGYTFTNYDIIWVRQAPGQGLEWMGYINPYNDGRKENEKFKGRVTMTRDTSTSTVYMELSSLRSEDTAVYYCARLLKYRRFRYYAIDYWGQGTTVTVSS VL: DIQMTQSPSSLSASVGDRVTITCRASENVYSHLAWYQQKPGKAPKLLIYAASNLQSGVPSRFSGSGSGTDYTFTISSLQPEDIATYYCQHFVYSPFTFGQGTKLEIK | 13 |
| 12-E9 (Fab, V domains shown, Fab) VH: QVQLVQSGAEVKKPGASVKVSCKASGYTFTNYDIIWVRQAPGQGLEWMGYINPYNDGTKYNEKFKYRVTMTRDTSTSTVYMELSSLRSEDTAVYYCARLLKYRRFRYYAIDYWGQGTTVTVSS VL: DIQMTQSPSSLSASVGDRVTITCRASESVYNNLAWYQQKPGKAPKLLIYAASNLQSGVPSRFSGSGSGTDFTFTISSLQPEDIATYYCQHFWGSPFTFGQGTKLEIK | 3.5 |
| 13-B3 (Fab, V domains shown, Fab) VH: QVQLVQSGAEVKKPGASVKVSCKASGYTFTNYDIIWVRQAPGQGLEWMGYINPYNGRREYNEKFKGRVTMTRDTSTSTVYMELSSLRSEDTAVYYCARLLKYRRFRYYAIDYWGQGTTVTVSS VL: DIQMTQSPSSLSASVGDRVTITCRASENVYNNLAWYQQKPGKAPKLLIYAASNLQSGVPSRFSGSGSGTDYTFTISSLQPEDIATYYCQHFWGSPFTFGQGTKLEIK | 13 |
